Laboratory results published in IntAct's records for PubMed 23972470.

B1: Serine/threonine-protein kinase 3 (Homo sapiens), Q13188 (parent)
chain: MEQPPAPKSKLKKLSEDSLTKQPEEVFDVLEKLGEGSYGSVFKAIHKESGQVVAIKQVPVESDLQEIIKEISIMQQCDSPYVVKYYGSYFKNTDLWIVMEYCGAGSVSDIIRLRNKTLIEDEIATILKSTLKGLEYLHFMRKIHRDIKAGNILLNTEGHAKLADFGVAGQLTDTMAKRNTVIGTPFWMAPEVIQEIGYNCVADIWSLGITSIEMAEGKPPYADIHPMRAIFMIPTNPPPTFRKPELWSDDFTDFVKKCLVKNPEQRATATQLLQHPFIKNAKPVSILRDLITEAMEIKAKRHEEQQRELEEEEENSDEDELDSHTMVKTSVESVGTMRATSTMSEGAQTMIEHNSTMLESDLGTMVINSEDEEEEDGTMKRNATSPQVQRPSFMDYFDKQDFKNKSHENCNQNMHEPFPMSKNVFPDNWKVPQDGDFDFLKNLSLEELQMRLKALDPMMEREIEELRQRYTAKRQPILDAMDAKKRRQQNF
partner: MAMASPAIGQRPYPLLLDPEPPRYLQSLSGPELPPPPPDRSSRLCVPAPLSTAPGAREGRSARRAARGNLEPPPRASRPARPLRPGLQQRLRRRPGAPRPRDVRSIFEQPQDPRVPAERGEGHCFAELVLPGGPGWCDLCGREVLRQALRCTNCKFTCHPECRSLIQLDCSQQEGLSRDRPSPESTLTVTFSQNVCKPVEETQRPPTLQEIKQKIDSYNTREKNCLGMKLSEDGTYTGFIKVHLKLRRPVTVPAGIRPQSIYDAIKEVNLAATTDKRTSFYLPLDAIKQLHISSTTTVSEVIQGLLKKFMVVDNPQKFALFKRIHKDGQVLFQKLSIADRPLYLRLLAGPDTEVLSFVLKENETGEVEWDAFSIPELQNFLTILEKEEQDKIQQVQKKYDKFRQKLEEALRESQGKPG

Variants of: B1
Conditions: with RASSF5, Q8WWW0-1
For K473A, the “effect of a mutation on the interaction” value was “decreasing interaction strength”.
